For one substance, Kd and dissociation half-life (t1/2) results are on record in patent EP1757701A1.

As a reminder, the Kd is a measure of binding affinity in units of concentration.

The target of assay [1] is Y0317-570 Fab. Put plainly: BIAcore; estimated from the observed koff with an assumed kon.
The target of assay [2] is Y0317-570 Fab. Nature of the assay: BIAcore, 1:1 Langmuir model: Herceptin dissociating from Y0317-570 Fab held on immobilized VEGF. On the technique in general: In SPR one partner is held on a chip, and binding of the other changes the refractive index at the surface.

For “4D5-IgG, also known as Herceptin® (antibody)”, the Kd with Y0317-570 Fab [1] is 30 to 300 nM. In the assay with Y0317-570 Fab [2], this substance had a dissociation half-life (t1/2) of 8.5 min.
